Measurements published in patent US20240279318A1 (NANJING LEGEND BIOTECH, published 2024).
Substitutions are numbered along the chain they refer to.

B1: AS170036 VL1VH1-56N98F (scFv)
scFv: QSALTQPRSVSGSPGQSVTISCAGTSSDVGSENYVSWYQQHPGKAPKLMIYQVNKRASGVPDRFSGSKSGNTASLTISGLQAEDEADYYCASYRSSDFNIVFGGGTKLTVLGGGGSGGGGSGGGGSEVQLVESGGGLVQPGGSLRLSCAASGFTFSSYAMSWVRQAPGKGLEWVSTINSGTNSPYYADSVKGRFTISRDNSKNTLYLQMNSLRAEDTAVYYCAKNFFDGSWFLGPPAMDYWGQGTLVTVSSHHHHHH
notes: also called 04-AS170036 VL1VH1-56N98F
B2: AS170036 VL1VH1-56N108S (scFv)
scFv: B1 scFv with F98H, G234S
notes: also called 21-AS170036 VL1VH1-56N108S
B3: AS170036 VL1VH1-56N108D (scFv)
scFv: B1 scFv with F98H, G234D
notes: also called 20-AS170036 VL1VH1-56N108D
B4: AS170036 VL1VH1-56Y98I (scFv)
scFv: B1 scFv with F98I, N182Y
notes: also called 02-AS170036 VL1VH1-56Y98I
B5: AS170036 VL1VH1-56N108A (scFv)
scFv: B1 scFv with F98H, G234A
notes: also called 19-AS170036 VL1VH1-56N108A
B6: AS170036 VL1VH1-56N98I (scFv)
scFv: B1 scFv with F98I
notes: also called 05-AS170036 VL1VH1-56N98I
B7: AS170036 VL1VH1-56Y98Q (scFv)
scFv: B1 scFv with F98Q, N182Y
notes: also called 03-AS170036 VL1VH1-56Y98Q
B8: AS170036 VL1VH1-56N98Q (scFv)
scFv: B1 scFv with F98Q
notes: also called 06-AS170036 VL1VH1-56N98Q
B9: AS170036 VL1VH1-56Y108A (scFv)
scFv: B1 scFv with F98H, N182Y, G234A
notes: also called 16-AS170036 VL1VH1-56Y108A
B10: AS170036 VL1VH1-56Y98F (scFv)
scFv: B1 scFv with N182Y
notes: also called 01-AS170036 VL1VH1-56Y98F
B11: AS170036 VL1VH1-57K98F108S (scFv)
scFv: B1 scFv with N182G, S183K, G234S
notes: also called 69-AS170036 VL1VH1-57K98F108S
B12: AS170036 VL1VH1-57K98Q108A (scFv)
scFv: B1 scFv with F98Q, N182G, S183K, G234A
notes: also called 73-AS170036 VL1VH1-57K98Q108A
B13: AS170036 VL1VH1-57K98I108D (scFv)
scFv: B1 scFv with F98I, N182G, S183K, G234D
notes: also called 71-AS170036 VL1VH1-57K98I108D
B14: AS170036 VL1VH1-57K98F108A (scFv)
scFv: B1 scFv with N182G, S183K, G234A
notes: also called 67-AS170036 VL1VH1-57K98F108A
B15: AS170036 VL1VH1-57K98I108A (scFv)
scFv: B1 scFv with F98I, N182G, S183K, G234A
notes: also called 70-AS170036 VL1VH1-57K98I108A
B16: AS170036 VL1VH1-57M98I108A (scFv)
scFv: B1 scFv with F98I, N182G, S183M, G234A
notes: also called 79-AS170036 VL1VH1-57M98I108A
B17: AS170036 VL1VH1-57K98Q108D (scFv)
scFv: B1 scFv with F98Q, N182G, S183K, G234D
notes: also called 74-AS170036 VL1VH1-57K98Q108D
B18: AS170036 VL1VH1-57M98F108D (scFv)
scFv: B1 scFv with N182G, S183M, G234D
notes: also called 77-AS170036 VL1VH1-57M98F108D
B19: AS170036 VL1VH1-57K98F108D (scFv)
scFv: B1 scFv with N182G, S183K, G234D
notes: also called 68-AS170036 VL1VH1-57K98F108D
B20: AS170036 VL1VH1-57H98I108D (scFv)
scFv: B1 scFv with F98I, N182G, S183H, G234D
notes: also called 62-AS170036 VL1VH1-57H98I108D
B21: AS170036 VL1VH1-57H98I108S (scFv)
scFv: B1 scFv with F98I, N182G, S183H, G234S
notes: also called 63-AS170036 VL1VH1-57H98I108S
B22: AS170036 VL1VH1-57M98F108S (scFv)
scFv: B1 scFv with N182G, S183M, G234S
notes: also called 78-AS170036 VL1VH1-57M98F108S
B23: AS170036 VL1VH1-57M98Q108A (scFv)
scFv: B1 scFv with F98Q, N182G, S183M, G234A
notes: also called 82-AS170036 VL1VH1-57M98Q108A
B24: AS170036 VL1VH1-57M98Q108S (scFv)
scFv: B1 scFv with F98Q, N182G, S183M, G234S
notes: also called 84-AS170036 VL1VH1-57M98Q108S
B25: AS170036 VL1VH1-57K98I108S (scFv)
scFv: B1 scFv with F98I, N182G, S183K, G234S
notes: also called 72-AS170036 VL1VH1-57K98I108S
B26: AS170036 VL1VH1-57H98Q108D (scFv)
scFv: B1 scFv with F98Q, N182G, S183H, G234D
notes: also called 65-AS170036 VL1VH1-57H98Q108D
B27: AS170036 VL1VH1-57M98F108A (scFv)
scFv: B1 scFv with N182G, S183M, G234A
notes: also called 76-AS170036 VL1VH1-57M98F108A
B28: AS170036 VL1VH1-57K98Q108S (scFv)
scFv: B1 scFv with F98Q, N182G, S183K, G234S
notes: also called 75-AS170036 VL1VH1-57K98Q108S
B29: AS170036 VL1VH1-57M98I108D (scFv)
scFv: B1 scFv with F98I, N182G, S183M, G234D
notes: also called 80-AS170036 VL1VH1-57M98I108D
B30: AS170036 VL1VH1-57H98Q108A (scFv)
scFv: B1 scFv with F98Q, N182G, S183H, G234A
notes: also called 64-AS170036 VL1VH1-57H98Q108A
B31: AS170036 VL1VH1-57H98I108A (scFv)
scFv: B1 scFv with F98I, N182G, S183H, G234A
notes: also called 61-AS170036 VL1VH1-57H98I108A
B32: AS170036 VL1VH1-57M98Q108D (scFv)
scFv: B1 scFv with F98Q, N182G, S183M, G234D
notes: also called 83-AS170036 VL1VH1-57M98Q108D
B33: AS170036 VL1VH1-57H98Q108S (scFv)
scFv: B1 scFv with F98Q, N182G, S183H, G234S
notes: also called 66-AS170036 VL1VH1-57H98Q108S

target: T1, AFP158/HLA-A*02:01 complex (human); assay: SPR, fold vs AS170036 VL1VH1;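 also: crude scFv muteins immobilised on a sensor chip, peptide–MHC complex passed over at several concentrations, binding then buffer-driven dissociation, KD estimated from on- and off-rates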
T1 construct: flowed as analyte in SPR
Procedure: (§1) The experiment was carried out as follows. The crude scFv protein were captured onto the sensorchip. Different concentrations (320, 160, 40 nM) of AFP158/HLA-A*02:01 complex flowed over the sensorchip surface, and were allowed to bind the antibody fragment for 100 s followed by injection of the running buffer to allow dissociation of the complex. On-rate (kd) and off-rate (kd) were calculated based on association and dissociation curve, and were used to estimate the equilibrium dissociation constant (KD).
(§2) The crude scFv muteins were then subjected to SPR affinity measurement by the method mentioned above.

Binder	Affinity increase
B1	8.2 fold
B2	7 fold
B3	13.2 fold
B4	33.5 fold
B5	14.9 fold
B6	10.7 fold
B7	25.8 fold
B8	9.7 fold
B9	48.1 fold
B10	21 fold

target: T1, AFP158/HLA-A*02:01 complex; assay: SPR, fold vs AS170036 VL1VH1; remark: another data set of the same source;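 also: crude scFv muteins immobilised on a sensor chip, peptide–MHC complex passed over at several concentrations, binding then buffer-driven dissociation, KD estimated from on- and off-rates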
Procedure: as §1, §2

Binder	Affinity increase
B11	27 fold
B12	80.4 fold
B13	38.7 fold
B14	64.3 fold
B15	52.6 fold
B16	28 fold
B17	58.7 fold
B18	36.2 fold
B19	54.5 fold
B20	45.9 fold
B21	26.4 fold
B22	18 fold
B23	43 fold
B24	16.7 fold
B25	21 fold
B26	90.7 fold
B27	43.4 fold
B28	33 fold
B29	20.5 fold
B30	128 fold
B31	67.6 fold
B32	29.6 fold
B33	56.3 fold

target: T1, AFP158/HLA-A*02:01 complex; assay: SPR, crude scFv captured, pMHC analyte
Procedure: as §1, §2

Binder	Kd	koff	kon
B1	27 nM	0.0097 s⁻¹	360000 M⁻¹ s⁻¹
B2	32 nM	0.0067 s⁻¹	210000 M⁻¹ s⁻¹
B3	17 nM	0.0046 s⁻¹	270000 M⁻¹ s⁻¹
B4	6.7 nM	0.0014 s⁻¹	210000 M⁻¹ s⁻¹
B5	15 nM	0.0036 s⁻¹	240000 M⁻¹ s⁻¹
B6	21 nM	0.0056 s⁻¹	270000 M⁻¹ s⁻¹
B7	8.7 nM	0.0016 s⁻¹	190000 M⁻¹ s⁻¹
B8	23 nM	0.0058 s⁻¹	250000 M⁻¹ s⁻¹
B9	4.7 nM	0.00093 s⁻¹	200000 M⁻¹ s⁻¹
B10	11 nM	0.0023 s⁻¹	220000 M⁻¹ s⁻¹

target: T1, AFP158/HLA-A*02:01 complex; assay: SPR, crude scFv captured, pMHC analyte; remark: another data set of the same source
Procedure: as §1, §2

Binder	Kd	koff	kon
B11	8.3 nM	0.0014 s⁻¹	160000 M⁻¹ s⁻¹
B12	2.8 nM	0.00053 s⁻¹	190000 M⁻¹ s⁻¹
B13	5.8 nM	0.0012 s⁻¹	210000 M⁻¹ s⁻¹
B14	3.5 nM	0.00079 s⁻¹	230000 M⁻¹ s⁻¹
B15	4.3 nM	0.00082 s⁻¹	190000 M⁻¹ s⁻¹
B16	8.1 nM	0.0018 s⁻¹	220000 M⁻¹ s⁻¹
B17	3.8 nM	0.00077 s⁻¹	200000 M⁻¹ s⁻¹
B18	6.2 nM	0.0018 s⁻¹	280000 M⁻¹ s⁻¹
B19	4.1 nM	0.001 s⁻¹	250000 M⁻¹ s⁻¹
B20	4.9 nM	0.0012 s⁻¹	250000 M⁻¹ s⁻¹
B21	8.5 nM	0.0014 s⁻¹	160000 M⁻¹ s⁻¹
B22	13 nM	0.0024 s⁻¹	190000 M⁻¹ s⁻¹
B23	5.2 nM	0.0012 s⁻¹	220000 M⁻¹ s⁻¹
B24	14 nM	0.0021 s⁻¹	160000 M⁻¹ s⁻¹
B25	11 nM	0.0013 s⁻¹	120000 M⁻¹ s⁻¹
B26	2.5 nM	0.00063 s⁻¹	250000 M⁻¹ s⁻¹
B27	5.2 nM	0.0013 s⁻¹	260000 M⁻¹ s⁻¹
B28	6.8 nM	0.00086 s⁻¹	130000 M⁻¹ s⁻¹
B29	11 nM	0.0029 s⁻¹	260000 M⁻¹ s⁻¹
B30	1.8 nM	0.00041 s⁻¹	230000 M⁻¹ s⁻¹
B31	3.3 nM	0.00076 s⁻¹	230000 M⁻¹ s⁻¹
B32	7.6 nM	0.0018 s⁻¹	240000 M⁻¹ s⁻¹
B33	4 nM	0.00065 s⁻¹	160000 M⁻¹ s⁻¹
